Data on 1 molecule can be found in publication PMC11996680.

The target in the test is T1, HOOK3-SNAPf labeled with Alexa-647 (human) (UniProt Q86VS8).
T1 sequence (chain, Alexa-647 on the SNAP tag): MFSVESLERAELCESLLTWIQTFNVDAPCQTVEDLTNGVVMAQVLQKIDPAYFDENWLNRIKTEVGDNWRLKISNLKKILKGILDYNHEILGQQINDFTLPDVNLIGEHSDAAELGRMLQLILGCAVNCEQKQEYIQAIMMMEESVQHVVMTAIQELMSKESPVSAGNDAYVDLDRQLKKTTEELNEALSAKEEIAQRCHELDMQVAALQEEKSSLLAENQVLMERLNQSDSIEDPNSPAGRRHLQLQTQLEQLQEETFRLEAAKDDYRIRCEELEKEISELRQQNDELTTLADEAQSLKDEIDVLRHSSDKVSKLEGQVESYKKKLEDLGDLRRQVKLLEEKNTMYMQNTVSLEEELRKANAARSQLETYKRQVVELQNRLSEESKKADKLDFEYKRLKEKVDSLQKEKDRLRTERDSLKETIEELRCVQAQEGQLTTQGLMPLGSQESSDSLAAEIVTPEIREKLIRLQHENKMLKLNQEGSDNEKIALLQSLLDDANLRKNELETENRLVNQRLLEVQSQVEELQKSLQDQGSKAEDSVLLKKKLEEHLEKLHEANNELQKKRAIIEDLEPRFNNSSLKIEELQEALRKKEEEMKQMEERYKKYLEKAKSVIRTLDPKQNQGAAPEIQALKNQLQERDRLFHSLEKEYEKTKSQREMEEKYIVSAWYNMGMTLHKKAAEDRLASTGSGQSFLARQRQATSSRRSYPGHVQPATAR

B1: GST–KIF1C^642–922–GFP (domain or fragment)
chain: EMEKRLQDLENQYRKEKEEADLLLEQQRLYADSDSGDDSDKRSCEESWRLISSLREQLPPTTVQTIVKRCGLPSSGKRRAPRRVYQIPQRRRLQGKDPRWATMADLKMQAVKEICYEVALADFRHGRAEIEALAALKMRELCRTYGKPDGPGDAWRAVARDVWDTVGEEEGGGAGSGGGSEEGARGAEVEDLRAHIDKLTGILQEVKLQNSSKDRELQALRDRMLRMERVIPLAQDHEDENEEGGEVPWAPPEGSEAAEEAAPSDRMPSARPPSPPLSSWE
Molecule B1 had a TMR–dynein landing rate on microtubules (TIRF), dynein–dynactin–HOOK3 with against without GST–KIF1C stalk–GFP of 2.6 fold.
